Assays:
[1] = target: C-ERMAD (516-560 and 516-586) peptide (UniProt P15311); experiment: FP
S100A6 = experiment: FP
S100A5 = experiment: FP
S100A11 = experiment: FP
S100A3 = experiment: FP
S100A4 [2] = experiment: FP
S100A2 = experiment: FP
S100A4 [3] = experiment: ITC
S100P = experiment: FP
S100A1 = experiment: FP
S100A7 = experiment: FP
S100A15 = experiment: FP
S100A14 = experiment: FP
S100G = experiment: FP

C-ERMAD (516-560 and 516-586) peptide (from UniProt P15311 516-586), sequence (P15311 516-586): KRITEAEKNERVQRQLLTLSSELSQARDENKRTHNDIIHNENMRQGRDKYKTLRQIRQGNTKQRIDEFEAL
p53 (1-60; 17-53) peptide, sequence (P04637 1-60): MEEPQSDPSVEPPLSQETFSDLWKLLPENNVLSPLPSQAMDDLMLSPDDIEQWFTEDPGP
C-ERMAD (516-560 and 516-586) peptide (UniProt P15311), sequence (P15311 516-586): as the sequence (P15311 516-586) above

| Substance | Kd (S100A6) | Kd (S100A4 [2]) | Kd (S100A2) | Kd (S100P) | also measured |
| --- | --- | --- | --- | --- | --- |
| S100A4 | – | – | – | – | Kd [1]: 11 µM |
| p53 (1-60; 17-53) peptide (from UniProt P04637 1-60) | 2.2 µM | 2.1 µM | 5.2 µM | – | Kd (S100A5): 67 µM; Kd (S100A11): 12 µM; Kd (S100A3): 7.7 µM |
| C-ERMAD (516-560 and 516-586) peptide (from UniProt P15311 516-586) | – | 6.1 µM | 5.4 µM | – | Kd (S100A4 [3]): 35 µM |
| MNK1 | 6.7 µM | 24 µM | 18 µM | 2.5 µM | – |
| S100A2 | – | – | – | – | Kd [1]: 15 µM |
| MK2 | – | – | 4.5 µM | 2.7 µM | Kd (S100A1): 15 µM |
| FOR20 | 0.007 µM | 2 µM | 0.27 µM | 1.2 µM | Kd (S100A5): 1.9 µM; Kd (S100A3): 29 µM; Kd (S100A1): 0.5 µM; Kd (S100A7): 5.9 µM; Kd (S100A15): 17 µM; Kd (S100A14): 63 µM; Kd (S100G): 3.8 µM |
